Source: article PMC7195466, “A common allosteric mechanism regulates homeostatic inactivation of auxin and gibberellin” (Nature Communications, 2020)

Molecular target: the molecule itself
Experiment: cell-based or functional assay

B1: Oryza sativa gibberellin 2-oxidase 3 (OsGA2ox3), wild type (enzyme, rice (Oryza sativa), UniProt Q8S0S6 1-327, looked up)
chain: MVVLAGPPAVDHIPLLRSPDPGDVFSGVPVVDLGSPGAARAVVDACERYGFFKVVNHGVATDTMDKAESEAVRFFSQTQPDKDRSGPAYPFGYGSKRIGFNGDMGWLEYLLLALDDASLADACTVPSCAVFRAALNEYISGVRKVAVRVMEAMSEGLGIAQADALSALVTAEGSDQVFRVNHYPPCRALQGLGCSVTGFGEHTDPQLVSVLRSNGTSGLQIALRDGQWVSVPSDRDSFFVNVGDSLQVLTNGRFKSVKHRVVANSLKSRVSFIYFGGPPLAQRIAPLPQLLGEGEQSLYKEFTWDEYKKAAYKSRLGDNRLAQFEKK
  Vmax of the tetramer and dimer against the monomers (forms separated by gel filtration): > 3 fold
